Results as given in patent US20200347464A1.

Biological target: prostate-specific membrane antigen (PSMA) (human) (UniProt Q04609)
Experiment: in vivo near-infrared optical imaging of mouse liver, 72 h after Ad-Track-PSMA or Ad-Track-Luciferase, 48 h after 15 or 30 ug J591-IR800

Chain of prostate-specific membrane antigen (PSMA) (human) (Q04609 whole entry): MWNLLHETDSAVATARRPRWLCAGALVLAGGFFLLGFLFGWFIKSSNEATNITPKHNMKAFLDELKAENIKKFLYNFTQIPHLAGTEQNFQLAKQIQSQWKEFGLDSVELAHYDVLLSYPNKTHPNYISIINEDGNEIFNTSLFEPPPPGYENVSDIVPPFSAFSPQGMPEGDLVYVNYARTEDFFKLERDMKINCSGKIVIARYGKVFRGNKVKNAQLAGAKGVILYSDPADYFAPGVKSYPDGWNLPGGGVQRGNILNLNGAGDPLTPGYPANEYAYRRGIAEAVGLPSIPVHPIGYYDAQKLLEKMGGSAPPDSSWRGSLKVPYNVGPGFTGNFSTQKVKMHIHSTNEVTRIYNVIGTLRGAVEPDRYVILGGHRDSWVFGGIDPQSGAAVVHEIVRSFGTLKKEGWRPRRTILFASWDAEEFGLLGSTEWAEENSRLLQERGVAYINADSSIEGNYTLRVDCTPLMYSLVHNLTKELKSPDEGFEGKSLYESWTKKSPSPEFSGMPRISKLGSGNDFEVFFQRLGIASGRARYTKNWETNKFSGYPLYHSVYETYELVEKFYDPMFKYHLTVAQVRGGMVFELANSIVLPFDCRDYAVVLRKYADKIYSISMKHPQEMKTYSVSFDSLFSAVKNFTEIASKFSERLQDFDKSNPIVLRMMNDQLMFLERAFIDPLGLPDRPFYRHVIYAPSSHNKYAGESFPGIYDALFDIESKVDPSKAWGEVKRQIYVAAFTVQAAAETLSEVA

For J591 antibody conjugated to IRDye 800CW, which signal-to-noise ratio (PSMA adenovirus relative to control adenovirus, liver) is on record?
Its signal-to-noise ratio (PSMA adenovirus relative to control adenovirus, liver) is 3.
